Experimental data from patent US20250258178A1 (SHIONOGI, published 2025).

Tests used:
[1] = biological target: T1, human histidine-rich glycoprotein (HRG), purified from human plasma (human, UniProt P04196 19-525); experiment: sandwich ELISA, HRG captured by solid phase 32-4C
T1 construct: also called human purified HRG; human purified HRG protein
T1 sequence: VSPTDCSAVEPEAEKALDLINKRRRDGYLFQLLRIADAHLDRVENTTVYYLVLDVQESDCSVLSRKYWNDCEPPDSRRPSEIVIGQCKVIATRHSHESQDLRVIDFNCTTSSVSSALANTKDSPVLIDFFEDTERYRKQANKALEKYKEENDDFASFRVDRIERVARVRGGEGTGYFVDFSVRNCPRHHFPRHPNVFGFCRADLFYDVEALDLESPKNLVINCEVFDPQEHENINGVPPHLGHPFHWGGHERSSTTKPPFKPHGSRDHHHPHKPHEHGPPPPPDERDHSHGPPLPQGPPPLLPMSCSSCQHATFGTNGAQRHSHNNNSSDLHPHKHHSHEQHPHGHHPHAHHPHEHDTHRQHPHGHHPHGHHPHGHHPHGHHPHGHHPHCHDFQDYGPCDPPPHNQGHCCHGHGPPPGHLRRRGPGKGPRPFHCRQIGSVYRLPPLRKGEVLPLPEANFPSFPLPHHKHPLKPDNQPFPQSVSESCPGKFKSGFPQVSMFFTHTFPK
Procedure: (§1) The capture antibody solution was dispensed at 25 μL per well into 384-well Maxisorp plates (NUNC), and the plates were incubated at room temperature for 3 hours. The plates were washed twice with 120 μL of washing solution per well (0.05% Tween 20-containing PBS). A blocking solution (1% BSA-containing PBS) was dispensed at 30 μL per well, and the plates were incubated at room temperature for 3 hours. The blocking solution was removed followed by dispensing the standard substance for evaluation at 20 μL per well (n=2), and the plates were incubated at room temperature for 3 hours. After washing the plates four times with the washing solution as described above, the solution of each detector antibody was dispensed at 10 μL per well, followed by dispensing a horseradish peroxidase-streptavidin solution (0.05 μg/mL) at 10 μL per well, and the plates were incubated at room temperature for 1 hour. After washing the plates four times with the washing solution as described above, a chromogenic substrate solution (TMB (3,3′,5,5′-tetramethylbenzidine)) was dispensed at 20 μL per well followed by incubating the plates at room temperature for 10 minutes, then a reaction stop solution 0.5 M H₂SO₄ was added at 20 μL/well, and the absorbance at 450 nm was measured.
(§2) The results regarding the evaluation of combinations chosen from 21 types of anti-HRG monoclonal antibodies are shown in Table 1. In Table 1, the absorbance at a wavelength of 450 nm of each combination was determined as follows: less than 1.0 OD: −, 1.0 OD or more and less than 2.0 OD: +, 2.0 OD or more and less than 3.0 OD: ++, and 3.0 OD or more: +++. The combinations of antibodies which could construct a sandwich ELISA system having enough level of absorbance change were 86 sets evaluated as ++ or +++ in Table 1.

[2] = biological target: T1, human histidine-rich glycoprotein …; experiment: sandwich ELISA, HRG captured by solid phase 35-3G-10C
Procedure: as §1, §2

[3] = biological target: T1, human histidine-rich glycoprotein …; experiment: sandwich ELISA, HRG captured by solid phase 65-3A
Procedure: as §1, §2

[4] = biological target: T1, human histidine-rich glycoprotein …; experiment: sandwich ELISA, HRG captured by solid phase 93-4C
Procedure: as §1, §2

[5] = biological target: T1, human histidine-rich glycoprotein …; experiment: sandwich ELISA, HRG captured by solid phase 81-2C
Procedure: as §1, §2

[6] = biological target: T1, human histidine-rich glycoprotein …; experiment: sandwich ELISA, HRG captured by solid phase 6-12A-10B-9G
Procedure: as §1, §2

[7] = biological target: T1, human histidine-rich glycoprotein …; experiment: sandwich ELISA, HRG captured by solid phase 69-1A
Procedure: as §1, §2

[8] = biological target: T1, human histidine-rich glycoprotein …; experiment: sandwich ELISA, HRG captured by solid phase 67-8A-5F
Procedure: as §1, §2

[9] = biological target: T1, human histidine-rich glycoprotein …; experiment: sandwich ELISA, HRG captured by solid phase 94-7A-3C-3D
Procedure: as §1, §2

[10] = biological target: T1, human histidine-rich glycoprotein …; experiment: sandwich ELISA, HRG captured by solid phase 31-1H
Procedure: as §1, §2

[11] = biological target: T1, human histidine-rich glycoprotein …; experiment: sandwich ELISA, HRG captured by solid phase 13-2G
Procedure: as §1, §2

[12] = biological target: T1, human histidine-rich glycoprotein …; experiment: sandwich ELISA, HRG captured by solid phase 88-2E
Procedure: as §1, §2

[13] = biological target: T1, human histidine-rich glycoprotein …; experiment: sandwich ELISA, HRG captured by solid phase 50-6C-2A
Procedure: as §1, §2

[14] = biological target: T1, human histidine-rich glycoprotein …; experiment: sandwich ELISA, HRG captured by solid phase 3-4E
Procedure: as §1, §2

[15] = biological target: T1, human histidine-rich glycoprotein …; experiment: sandwich ELISA, HRG captured by solid phase 19-1C
Procedure: as §1, §2

[16] = biological target: T1, human histidine-rich glycoprotein …; experiment: sandwich ELISA, HRG captured by solid phase 9-1F
Procedure: as §1, §2

[17] = biological target: T1, human histidine-rich glycoprotein …; experiment: sandwich ELISA, HRG captured by solid phase 14-6F
Procedure: as §1, §2

[18] = biological target: T1, human histidine-rich glycoprotein …; experiment: sandwich ELISA, HRG captured by solid phase 42-10D
Procedure: as §1, §2

B1: anti-HRG monoclonal antibody 75-2D (antibody, V domains shown)
VH: QVQLQQSGAELMKPGASVKISCKATGYTFSSYWIEWVKQRPGHGLEWIGEILPGSGRTNYNEKFKGKATFTADTSSNTAYMQLSSLTSEDSAVYYCARYSYFYYFDYWGQGTTLTVSS
VL: DNVLTQSPAIMSASLGERVTMTCTASSSVSSSYLHWYQQKPGSSPKLWIYSTSNLASGVPARFSGSGSGTSYSLTISSMEAEDAATYYCHQYHRSPWTFGGGTKLEIK
notes: Mouse hybridoma monoclonal; also called clone No. 75-2D
1 to 2 od: absorbance at 450 nm (OD450) [4]
≥ 3 od: absorbance at 450 nm (OD450) [3] | absorbance at 450 nm (OD450) [6] | absorbance at 450 nm (OD450) [8] | absorbance at 450 nm (OD450) [13]
< 1 OD: absorbance at 450 nm [1] | absorbance at 450 nm [2] | absorbance at 450 nm [5] | absorbance at 450 nm [7] | absorbance at 450 nm [9] | absorbance at 450 nm [10] | absorbance at 450 nm [12] | absorbance at 450 nm [14] | absorbance at 450 nm [15]
2 to 3 od: absorbance at 450 nm (OD450) [11]

B2: anti-HRG monoclonal antibody 69-1A (antibody, V domains shown)
VH: EVKLEESGGGLVQPGGSMKLSCAASGFTFSDAWMDWVRQSPEKGLEWVAEIRSKANNHGTYYAESVKGRFTISRDDSKSSVYLRMNSLSAEDTGIYYCTRPFAYWGQGTLVTVSA
VL: DVVVTQTPLSLPVSLGDQASISCRSSQSLVHIDGNTYFHWYVQKPGQSPKLLIYKVSNRFSGVPDRFSGSGSGTDFTLKISRVEAEDLGVYFCSQSTHVPLTFGAGTKLELK
notes: Mouse hybridoma monoclonal; also called clone No. 69-1A
2 to 3 od: absorbance at 450 nm (OD450) [6]
1 to 2 od: absorbance at 450 nm (OD450) [4] | absorbance at 450 nm (OD450) [17]
≥ 3 od: absorbance at 450 nm (OD450) [14]
< 1 OD: absorbance at 450 nm [1] | absorbance at 450 nm [2] | absorbance at 450 nm [3] | absorbance at 450 nm [16] | absorbance at 450 nm [5] | absorbance at 450 nm [7] | absorbance at 450 nm [8] | absorbance at 450 nm [9] | absorbance at 450 nm [10] | absorbance at 450 nm [11] | absorbance at 450 nm [12] | absorbance at 450 nm [13] | absorbance at 450 nm [18] | absorbance at 450 nm [15]
